Factor of induction of β-galactosidase activity, induction of β-galactosidase activity against the C-terminal fusion TrxA-pepBs1 (fold higher than the C-terminal fusion) and β-galactosidase activity data for three substances are collected here from patent US20080020377A1.

For assay [1], the target named is Tet repressor protein from class B [TetR(B)] (Escherichia coli) (UniProt P04483). Nature of the assay: cell-based or functional assay.
A further assay addresses TetR(B/D)188-208 (UniProt P0ACT4). Nature of the assay: cell-based or functional assay.

In assay [1], “PepBs1-TrxA (N-terminal fusion of pepBs1 to Escherichia coli thioredoxin A) (from UniProt P0AA25 2-109)” showed a factor of induction of β-galactosidase activity at 60 µM IPTG of 40 fold and an induction of β-galactosidase activity against the C-terminal fusion TrxA-pepBs1 (fold higher than the C-terminal fusion) of 3.
Take “TrxA-pepBs1 (C-terminal fusion of pepBs1 to Escherichia coli thioredoxin A) (from UniProt P0AA25 2-109)”: the factor of induction of β-galactosidase activity at 60 µM IPTG in assay [1] worked out at 14 fold.
In the case of “SbmC(C)-pepBs1 fusion protein (from UniProt P33012 1-157)”, the β-galactosidase activity at 60 µM IPTG with TetR(B/D)188-208 turned out to be 4 fold.
